Assays:
[1] = target: recombinant human HVEM (human) (UniProt Q92956); experiment: BLI (Octet-Red96), tagged rhHVEM immobilised on biosensor
[2] = target: recombinant human LTβR (human) (UniProt P36941); experiment: BLI (Octet-Red96), tagged rhLTβR immobilised on biosensor
human 4-1BB-His (human) [3] = target: human 4-1BB-His (human) (UniProt Q07011); experiment: MSD 'Human 41BB-Binding Assay': coat h41BB-His (R&D), detect anti-41BBL (R&D), anti-Goat Sulfo; positive control
mouse CD47-Fc (mouse) = mouse CD47-Fc (mouse) (UniProt Q61735); experiment: MSD dual-binding sandwich: coat mCD47-Fc (Acro); detect m41BB-His (Acro); anti-His Biotin + Streptavidin Sulfo; labelled Negative Control
[4] = target: recombinant human PVR (human) (UniProt P15151); experiment: BLI (Octet-Red96), tagged rhPVR immobilised on biosensor
[5] = target: recombinant human HVEM-Fc (human) (UniProt Q92956); experiment: MSD sandwich: capture HVEM-Fc; detection PVR-Biotin
[6] = target: recombinant human LTβR-Fc (human) (UniProt P36941); experiment: MSD sandwich: capture LTβR-Fc; detection PVR-Biotin
human 4-1BB-His (human) [7] = target: human 4-1BB-His (human) (UniProt Q07011); experiment: MSD 'Human 41BB-Binding Assay': coat h41BB-His (R&D), detect anti-41BBL (R&D), anti-Goat Sulfo; negative control, fit value for a curve that stays near the baseline
mouse CD47-His (mouse) = mouse CD47-His (mouse) (UniProt Q61735); experiment: MSD: coat mCD47-His (Acro); detection anti-mouse Sulfo (MSD); labelled Positive Control
mouse 4-1BB-His (mouse) = mouse 4-1BB-His (mouse) (UniProt P20334); experiment: MSD: coat m41BB-His (Acro); detection anti-mouse Sulfo (MSD); labelled Negative Control, flat curve
mouse 4-1BB-His (mouse), sequence (P20334 24-187 limits assumed): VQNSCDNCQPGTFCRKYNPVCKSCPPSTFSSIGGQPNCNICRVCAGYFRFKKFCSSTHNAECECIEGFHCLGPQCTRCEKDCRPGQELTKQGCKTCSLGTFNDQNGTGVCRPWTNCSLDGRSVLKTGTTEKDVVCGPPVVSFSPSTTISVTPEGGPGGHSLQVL

recombinant human HVEM (human), sequence (Q92956 39-202 limits assumed): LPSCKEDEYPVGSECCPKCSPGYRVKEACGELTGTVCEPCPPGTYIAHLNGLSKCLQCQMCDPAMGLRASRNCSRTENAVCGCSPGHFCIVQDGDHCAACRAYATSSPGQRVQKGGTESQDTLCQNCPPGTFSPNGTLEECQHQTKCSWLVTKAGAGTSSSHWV
recombinant human PVR (human), sequence (P15151 21-343 limits assumed): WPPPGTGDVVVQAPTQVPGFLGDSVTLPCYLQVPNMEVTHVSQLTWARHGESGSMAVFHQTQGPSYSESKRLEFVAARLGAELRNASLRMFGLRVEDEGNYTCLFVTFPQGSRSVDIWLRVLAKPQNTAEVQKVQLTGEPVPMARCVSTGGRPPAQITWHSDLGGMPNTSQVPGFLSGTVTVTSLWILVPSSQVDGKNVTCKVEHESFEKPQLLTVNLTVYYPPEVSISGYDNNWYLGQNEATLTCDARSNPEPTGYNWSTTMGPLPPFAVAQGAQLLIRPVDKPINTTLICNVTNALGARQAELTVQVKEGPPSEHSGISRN
recombinant human LTβR (human), sequence (P36941 31-227 limits assumed): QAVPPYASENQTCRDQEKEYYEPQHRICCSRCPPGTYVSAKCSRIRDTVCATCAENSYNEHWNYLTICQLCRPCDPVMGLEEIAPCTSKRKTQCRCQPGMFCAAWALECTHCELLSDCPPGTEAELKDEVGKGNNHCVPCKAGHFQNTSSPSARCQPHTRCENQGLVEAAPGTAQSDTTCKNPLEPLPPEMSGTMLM
human 4-1BB-His (human), sequence (Q07011 24-186 limits assumed): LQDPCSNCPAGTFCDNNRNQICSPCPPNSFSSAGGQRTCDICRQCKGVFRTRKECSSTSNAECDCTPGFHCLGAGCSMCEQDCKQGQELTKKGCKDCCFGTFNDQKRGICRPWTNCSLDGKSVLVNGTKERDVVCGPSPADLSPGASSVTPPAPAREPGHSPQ
recombinant human HVEM-Fc (human), sequence (Q92956 39-202 limits assumed): as the sequence (Q92956 39-202 limits assumed) above
recombinant human LTβR-Fc (human), sequence (P36941 31-227 limits assumed): as the sequence (P36941 31-227 limits assumed) above
mouse CD47-Fc (mouse), sequence (Q61735 19-140 limits assumed): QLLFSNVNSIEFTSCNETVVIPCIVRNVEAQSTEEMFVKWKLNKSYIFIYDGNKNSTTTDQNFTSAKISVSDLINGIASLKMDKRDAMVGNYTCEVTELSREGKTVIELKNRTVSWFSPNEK
mouse CD47-His (mouse), sequence (Q61735 19-140 limits assumed): as above

“Fc-LIGHT single-sided fusion protein control (Fc fusion)” gave a Kd [1] of 2.12 nM, a koff [1] of 0.000876 s⁻¹ and a kon [1] of 410000 M⁻¹ s⁻¹. The Kd [2] was 28.4 nM, the koff [2] was 0.00754 s⁻¹ and the kon [2] was 266000 M⁻¹ s⁻¹.
Substance “PD-1-Fc-4-1BBL chimeric protein (as used in Example 14) (Fc fusion)” has an EC50 (human 4-1BB-His (human) [3]) of 0.63 nM.
“PD-1-Fc-4-1BBL chimeric protein (as used in Example 15) (Fc fusion)” showed an EC50 (mouse CD47-Fc (mouse)) of 45000 nM.
“TIGIT-Fc single-sided fusion protein control (Fc fusion)” gave a Kd [4] of 5.24 nM, a koff [4] of 0.00154 s⁻¹ and a kon [4] of 296000 M⁻¹ s⁻¹.
With “TIGIT-Fc(IgG1)-LIGHT chimeric protein (Fc fusion)” the EC50 (read off the curve) [5] was 5 nM and the EC50 (read off the curve) [6] was 3 nM.
Substance “hSIRPα-Fc-CD40L chimeric protein (Fc fusion)” has an EC50 (human 4-1BB-His (human) [7]) of 143 nM.
“mSIRPα-Fc-CD40L chimeric protein (Fc fusion)” gave an EC50 (mouse CD47-His (mouse)) of 0.369 nM and an EC50 (mouse 4-1BB-His (mouse)) of 5350 nM.

Source: patent US20240016892A1
